The text below walks through data of patent US7119077B1, “Multimeric forms of members of the steroid/thyroid superfamily of receptors with the ultraspiracle receptor” (The Salk Institute for Biological Studies, priority 1990, dated 2006).

The target of data set [1] is T1, usp/PPAR heterodimer (Drosophila melanogaster / Rattus …, UniProt P20153;P37230 P20153:1-508,P37230:1-468).
T1 sequence 1: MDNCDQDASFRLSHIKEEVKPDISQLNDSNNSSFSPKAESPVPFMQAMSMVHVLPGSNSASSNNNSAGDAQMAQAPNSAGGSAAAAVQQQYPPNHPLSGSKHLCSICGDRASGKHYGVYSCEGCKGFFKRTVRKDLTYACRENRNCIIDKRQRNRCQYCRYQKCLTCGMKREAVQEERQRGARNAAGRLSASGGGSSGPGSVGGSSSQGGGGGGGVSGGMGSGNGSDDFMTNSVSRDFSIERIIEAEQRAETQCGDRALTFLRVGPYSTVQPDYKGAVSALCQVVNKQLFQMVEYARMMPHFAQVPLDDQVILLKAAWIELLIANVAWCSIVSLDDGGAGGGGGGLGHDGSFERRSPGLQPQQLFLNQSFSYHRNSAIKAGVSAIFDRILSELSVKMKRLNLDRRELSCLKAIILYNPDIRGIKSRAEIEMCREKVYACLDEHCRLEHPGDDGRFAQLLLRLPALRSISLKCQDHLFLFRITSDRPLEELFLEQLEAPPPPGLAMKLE
T1 sequence 2: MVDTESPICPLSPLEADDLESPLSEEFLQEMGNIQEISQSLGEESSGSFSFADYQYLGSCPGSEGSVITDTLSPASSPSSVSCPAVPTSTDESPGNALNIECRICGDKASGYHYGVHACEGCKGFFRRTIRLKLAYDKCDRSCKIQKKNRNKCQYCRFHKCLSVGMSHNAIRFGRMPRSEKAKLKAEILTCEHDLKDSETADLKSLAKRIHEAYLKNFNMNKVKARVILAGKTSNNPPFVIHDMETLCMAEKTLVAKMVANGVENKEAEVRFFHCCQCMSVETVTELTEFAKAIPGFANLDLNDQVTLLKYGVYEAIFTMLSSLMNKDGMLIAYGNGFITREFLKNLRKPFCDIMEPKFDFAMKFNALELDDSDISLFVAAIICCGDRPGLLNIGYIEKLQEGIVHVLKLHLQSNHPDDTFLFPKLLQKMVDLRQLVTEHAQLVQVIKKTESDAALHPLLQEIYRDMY
The data set can be described thus: EMSA; high affinity; usp antibody supershift. The settings on record: label: 32P. Here is the method:
(§1) For gel mobility shift assay, proteins were incubated with binding buffer, which contained 100 mM KCl, 7.5% glycerol, 20 mM HEPES pH 7.5, 2 mM DTT and 0.1% NP-40, on ice for 20 minutes in the presence of 2 μg of nonspecific competitor poly dI-dC and other oligo competitors. Then approximately 1 ng of ^32P-dCTP probe, which was labelled to specific activity about 1-5×10^8 cpm/μg by fill-in reaction with Klenow fragments, was added to the reaction and incubated at room temperature for 20 minutes. Antiserum or preimmune serum was added 10 minutes after the probe was added. The reaction was then loaded into 5% non-denaturing polyacrylamide gel in 0.5×TBE running buffer [1×TBE comprises 0.089 M Tris borate, 0.089 M boric acid and 0.002 M EDTA]. After electrophoresis, the gel was dried for autoradiography.
(§2) Using in vitro translated usp protein, interaction of usp with three mammalian nuclear receptors (TRβ, VDR and PPAR) was tested in gel mobility shift assays with the appropriate response element for each of the three receptors as the probes.

Data set [2] has as its target T2, usp/VDR heterodimer (Drosophila melanogaster / Homo sapiens, UniProt P20153;P11473 P20153:1-508,P11473:1-427).
T2 sequence 1: T1 sequence 1
T2 sequence 2: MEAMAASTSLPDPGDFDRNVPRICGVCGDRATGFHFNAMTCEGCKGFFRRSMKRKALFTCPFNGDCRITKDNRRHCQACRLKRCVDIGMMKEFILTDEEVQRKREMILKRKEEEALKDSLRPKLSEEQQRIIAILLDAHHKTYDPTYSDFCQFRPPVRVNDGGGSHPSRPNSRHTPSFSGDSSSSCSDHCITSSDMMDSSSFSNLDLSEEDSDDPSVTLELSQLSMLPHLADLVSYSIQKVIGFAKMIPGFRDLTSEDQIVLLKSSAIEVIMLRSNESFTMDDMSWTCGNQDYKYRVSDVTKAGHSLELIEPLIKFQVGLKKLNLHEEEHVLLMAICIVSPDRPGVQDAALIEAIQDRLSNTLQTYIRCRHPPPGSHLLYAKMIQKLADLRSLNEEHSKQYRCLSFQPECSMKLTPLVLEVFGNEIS
Put plainly: EMSA; usp dependent; usp antibody supershift. The settings on record: label: 32P. The method, then:
as §1, §2
(A gel shift assay detects complexes by their altered migration in electrophoresis.)

B1: AOX-PPARE (DR1) (dsDNA)
DNA 1: AGGACAAAGGTCA
DNA 2: TGACCTTTGTCCT
Take B1: the binding result in data set [1] is “binds”.

B2: SPP1-VDRE (DR3, printed SSP1) (dsDNA)
DNA 1: GGTTCACGAGGTTCA
DNA 2: TGAACCTCGTGAACC
B2: in data set [2], the binding result was “binds”.
